Measured values reported in the RNAGym collection of RNA variant scans (doi:10.7554/elife.90254).

B1: LINE1-full (parent)
chain: UACGUAGGUGGUUUUCCCCUGAUAGUGCUAAGGGGGCCUGGAAGUUUGGACUGGGCAGAGCUCAACACAGCGUGGCAAAGUGGCUGUGGCUAGACUGCCUCUCUGGAUUCCUCGUCACUCAGCAGGGCAUCUCUGAGAGAAAUGCC

Variants of: B1
Test: self-cleavage, relative activity (ratio to wild type); higher = more cleavage; in vitro, sequencing; the parent is a self-cleaving ribozyme

Variant	self-cleavage
UACGUAGGUAGUUUUCCCCUGAUAGUGCUAAGGGGGCCUGGAAGUUUGGACUGGGCAGAGCUCAACACAGCGUGGCAGAGUGGCUGUGGCUAGACUGCCUCUCUGGAUUCCUCGUCACUCAGCAGGGCAUCUCUGAGAGAAAUGCC [G10A A78G]	0.91
UACGUAGGGGGUUUUCCCCUGAUAGUGCUAAGGGGGCCUGGAAGUUUGGACUGGGCAGAGCUCAACACAGCGUGGCAAAGUGGCUGUGGCUAGACUGCCUCCCUGGAUUCCUCGUCACUCAGCAGGGCAUCUCUGAGAGAAAUGCC [U9G U102C]	1.26
UACGUAGGGGGUUUUCCCCUGAUAGUGCUAAGGGGGCCUGGAAGUUUGGACUGGGCAGAGCUCAACACAGCGUGGCAAAGUGGCUGUGGCUAGACUGCCUCUCUGGAUUCCUCGCCACUCAGCAGGGCAUCUCUGAGAGAAAUGCC [U9G U115C]	0.29
UACGUAGGUAGUUUUCCCCUGAUAGUGCUAAGGGGGCCUGGAAGUUUGGACUGGGCAGAGCUCAACACAGCGUGGCAAAGUGGCUGUGGCUAGACUGCCUCUCUGGAUUCCUCGUCACUCAGCAGGGCAUCUCUGAGAGAAGUGCC [G10A A142G]	1.42
UACGUAGGGGGUUUUCCCCUGAUAGUGCUAAGGGGGCCUGGAAGUUUGGACUGGGCAGAGCUCAACACAGCGUGGCAAAGUGGCUGUGGCUAGACCGCCUCUCUGGAUUCCUCGUCACUCAGCAGGGCAUCUCUGAGAGAAAUGCC [U9G U96C]	0
UACGUAGGGGGUUUUCCCCUGAUAGUGCUAAGGGGGCCUGGAAGUUUGGACUGGGCAGAGCUCAACACAGCGUGGCAAAGUGGCUGUGGCUAGACUGCCUCUCUGGAUUCCCCGUCACUCAGCAGGGCAUCUCUGAGAGAAAUGCC [U9G U112C]	0.73
UACGUAGGUAGUUUUCCCCUGAUAGUGCUGAGGGGGCCUGGAAGUUUGGACUGGGCAGAGCUCAACACAGCGUGGCAAAGUGGCUGUGGCUAGACUGCCUCUCUGGAUUCCUCGUCACUCAGCAGGGCAUCUCUGAGAGAAAUGCC [G10A A30G]	1.19
UACGUAGGUAGUUUUCCCCUGAUAGUGCUAAGGGGGCCUGGAAGUUUGGACUGGGCAGAGCUCAACACAGCGUGGCAAAGUGGCUGUGGCUAGACUGCCUCUCUGGAUUCCUCGUCUCUCAGCAGGGCAUCUCUGAGAGAAAUGCC [G10A A117U]	1.21
UACGUAGGUAGUUUUCCCCUGAUAGUGCUAAGGGGGCCUGGAAGUUUGGACUGGGCAGAGCUCAGCACAGCGUGGCAAAGUGGCUGUGGCUAGACUGCCUCUCUGGAUUCCUCGUCACUCAGCAGGGCAUCUCUGAGAGAAAUGCC [G10A A65G]	0.02
UACGUAGGUAGUUUUCCCCUGAUAGUGCUAAGGGGGCCUGGAAGUUUGGACUGGGCAGAGCUCAUCACAGCGUGGCAAAGUGGCUGUGGCUAGACUGCCUCUCUGGAUUCCUCGUCACUCAGCAGGGCAUCUCUGAGAGAAAUGCC [G10A A65U]	0.14
UACGUAGGUAGUUUUCCCCUGAUAGUGCUAAGGGGGCCUGGAAGUUUGGACUGGGCAGAGCUCAACGCAGCGUGGCAAAGUGGCUGUGGCUAGACUGCCUCUCUGGAUUCCUCGUCACUCAGCAGGGCAUCUCUGAGAGAAAUGCC [G10A A67G]	0.42
UACGUAGGUAGUUUUCCCCUGAUAGUGCUAGGGGGGCCUGGAAGUUUGGACUGGGCAGAGCUCAACACAGCGUGGCAAAGUGGCUGUGGCUAGACUGCCUCUCUGGAUUCCUCGUCACUCAGCAGGGCAUCUCUGAGAGAAAUGCC [G10A A31G]	0.45
UACGUAGGGGGUUUUCCCCUGAUAGUGCUAAGGGGGCCUGGAAGUUUGGACUGGGCAGAGCUCAACACAGCGUGGCAAAGUGGCUGUGGCUAGACUGCCCCUCUGGAUUCCUCGUCACUCAGCAGGGCAUCUCUGAGAGAAAUGCC [U9G U100C]	1.61
UACGUAGGGGGUUUUCCCCUGAUAGUGCUAAGGGGGCCUGGAAGUUUGGACUGGGCAGAGCUCAACACAGCGUGGCAAAGUGGCUGUGGCUAGACUGCCACUCUGGAUUCCUCGUCACUCAGCAGGGCAUCUCUGAGAGAAAUGCC [U9G U100A]	0.86
UACGUAGGUAGUUUUCCCCUGAUAGUGCUAAGGGGGCCUGGAAGUUUGGACUGGGCAGAGCUCAACACGGCGUGGCAAAGUGGCUGUGGCUAGACUGCCUCUCUGGAUUCCUCGUCACUCAGCAGGGCAUCUCUGAGAGAAAUGCC [G10A A69G]	0.64
UACGUAGGUAGUUUUCCCCUGAUAGUGCUAAGGGGGCCUGGAAGUUUGGACUGGGCUGAGCUCAACACAGCGUGGCAAAGUGGCUGUGGCUAGACUGCCUCUCUGGAUUCCUCGUCACUCAGCAGGGCAUCUCUGAGAGAAAUGCC [G10A A57U]	0.07
UACGUAGGUAGUUUUCCCCUGAUAGUGCUAAGGGGGCCUGGAAGUUUGGACUGGGCAGAGCUCAACACAGCGUGGCAAAGUGGCUGUGGCUAGACUGCCUCUCUGGAUUCCUCGUCACUCAGCAGGGCUUCUCUGAGAGAAAUGCC [G10A A129U]	0.66
UACGUAGGUAGUUUUCCCCUGAUAGUGCUAAGGGGGCCUGGAAGUUUGGACUGGGCAGAGCUCAACACAGCGUGGCAAAGUGGCUGUGGCUAGACUGCCUCUCUGGAUUCCUCGUCACUCAGCAGGGCAUCUCUGAGAGAGAUGCC [G10A A141G]	0.94
UACGUAGGGGGUUUUCCCCUGAUAGUGCUAAGGGGGCCUGGAAGUUUGGACUGGGCAGAGCUCAACACAGCGUGGCAAAGUGGCUGUGGCUAGACUGCCUCUCUGGAUUCCUCGUCACCCAGCAGGGCAUCUCUGAGAGAAAUGCC [U9G U119C]	1.32
UACGUAGGUAGUUUUCCCCUGAUAGUGCUAAGGGGGCCUGGAAGUUUGGACUGGGCAGAGCUCGACACAGCGUGGCAAAGUGGCUGUGGCUAGACUGCCUCUCUGGAUUCCUCGUCACUCAGCAGGGCAUCUCUGAGAGAAAUGCC [G10A A64G]	0.22
